The record followed here is publication doi:10.1101/2023.02.16.528878 (bioRxiv, 2023).

The labels stand for the following.
B1: recombinant UFC1 (enzyme)
chain: MADEATRRVVSEIPVLKTNAGPRDRELWVQRLKEEYQSLIRYVENNKNADNDWFRLESNKEGTRWFGKCWYIHDLLKYEFDIEFDIPITYPTTAPEIAVPELDGKTAKMYRGGKICLTDHFKPLWARNVPKFGLAHLMALGLGPWLAVEIPDLIQKGVIQHKEKCNQ

The test “recombinant UFC1” concerns the target B1. Kind of test: ITC. On the technique in general: Isothermal titration calorimetry measures the heat released or taken up as one component is titrated into another.
The target of another test is T1, GST-CDK5RAP3 (human, UniProt Q96JB5 1-506).
T1 sequence: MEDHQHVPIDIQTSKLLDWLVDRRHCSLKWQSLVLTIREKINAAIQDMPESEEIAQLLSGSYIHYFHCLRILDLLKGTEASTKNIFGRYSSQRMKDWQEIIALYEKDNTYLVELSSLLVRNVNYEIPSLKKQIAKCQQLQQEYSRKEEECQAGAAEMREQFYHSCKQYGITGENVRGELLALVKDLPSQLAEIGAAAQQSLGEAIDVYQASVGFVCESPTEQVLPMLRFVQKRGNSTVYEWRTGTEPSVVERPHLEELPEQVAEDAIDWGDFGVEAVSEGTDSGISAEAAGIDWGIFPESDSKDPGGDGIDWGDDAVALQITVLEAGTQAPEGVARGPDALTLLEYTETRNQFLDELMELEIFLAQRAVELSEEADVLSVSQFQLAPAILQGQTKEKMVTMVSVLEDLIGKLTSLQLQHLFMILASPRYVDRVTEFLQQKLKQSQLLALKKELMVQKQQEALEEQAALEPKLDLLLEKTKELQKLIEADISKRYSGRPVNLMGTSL
The test is described as follows: pull-down.

In the case of MADAWEEIRRLAADFQRAQFA [UFL1^UBS peptide, UFL1(1-21)], the Kd (in general, the free concentration of one partner at which half of the binding sites on the other are occupied at equilibrium, for simple one-to-one binding) in the test with recombinant UFC1 was determined as 410 nM.
In the case of B1, the binding result with GST-CDK5RAP3 was “binds”.
